Results as given in US12630600B2 (MEDIMMUNE LIMITED, priority 2022, dated 2026).
Starred links: 1 amine or outer side, 2 acyl side, 3 side chain; linkers in the order of their positions; H or OH if unused. Non-standard residues stand in square brackets, D forms with d. Groups on a side chain read outwards from the residue. No end group written: not given here. *: point of attachment. C20 diacid = O=C(O)CCCCCCCCCCCCCCCCCCC(=O)*; C18 diacid = O=C(O)CCCCCCCCCCCCCCCCC(=O)*; γGlu = O=C(O)[C@H](CCC(=O)[*:2])N[*:1]; αMeF = C[C@](N)(Cc1ccccc1)C(=O)O; AEEA = NCCOCCOCC(=O)O; Aib = CC(C)(N)C(=O)O

Tests used:
human glucagon receptor = human glucagon receptor (human, UniProt P47871); test: cell-based or functional assay
human GLP-1 receptor = human GLP-1 receptor (human, UniProt P43220); test: cell-based or functional assay

B1: Peptide 517 (peptide)
peptide: H[Aib]QGTFTSDVSK[αMeF]LEAK([AEEA-AEEA-γGlu-γGlu-C18 diacid])AAREFIAWLLET-NH2
modifications: N-terminus assumed
SMILES: CC[C@H](C)[C@H](NC(=O)[C@H](Cc1ccccc1)NC(=O)[C@H](CCC(=O)O)NC(=O)[C@H](CCCNC(=N)N)NC(=O)[C@H](C)NC(=O)[C@H](C)NC(=O)[C@H](CCCCNC(=O)COCCOCCNC(=O)COCCOCCNC(=O)CC[C@H](NC(=O)CC[C@H](NC(=O)CCCCCCCCCCCCCCCCC(=O)O)C(=O)O)C(=O)O)NC(=O)[C@H](C)NC(=O)[C@H](CCC(=O)O)NC(=O)[C@H](CC(C)C)NC(=O)[C@](C)(Cc1ccccc1)NC(=O)[C@H](CCCCN)NC(=O)[C@H](CO)NC(=O)[C@@H](NC(=O)[C@H](CC(=O)O)NC(=O)[C@H](CO)NC(=O)[C@@H](NC(=O)[C@H](Cc1ccccc1)NC(=O)[C@@H](NC(=O)CNC(=O)[C@H](CCC(N)=O)NC(=O)C(C)(C)NC(=O)[C@@H](N)Cc1c[nH]cn1)[C@@H](C)O)[C@@H](C)O)C(C)C)C(=O)N[C@@H](C)C(=O)N[C@@H](Cc1c[nH]c2ccccc12)C(=O)N[C@@H](CC(C)C)C(=O)N[C@@H](CC(C)C)C(=O)N[C@@H](CCC(=O)O)C(=O)N[C@H](C(N)=O)[C@@H](C)O
cAMP production EC50 (human glucagon receptor): 738 pM
cAMP production EC50 (human GLP-1 receptor): 146 pM

B2: Peptide 514 (peptide)
peptide: H[Aib]QGTFTSDVSK[αMeF]LDTK([AEEA-AEEA-γGlu-C18 diacid])AARDFVQWLLE[Aib]G-NH2
modifications: N-terminus assumed
SMILES: CC(C)C[C@H](NC(=O)[C@H](Cc1c[nH]c2ccccc12)NC(=O)[C@H](CCC(N)=O)NC(=O)[C@@H](NC(=O)[C@H](Cc1ccccc1)NC(=O)[C@H](CC(=O)O)NC(=O)[C@H](CCCNC(=N)N)NC(=O)[C@H](C)NC(=O)[C@H](C)NC(=O)[C@H](CCCCNC(=O)COCCOCCNC(=O)COCCOCCNC(=O)CC[C@H](NC(=O)CCCCCCCCCCCCCCCCC(=O)O)C(=O)O)NC(=O)[C@@H](NC(=O)[C@H](CC(=O)O)NC(=O)[C@H](CC(C)C)NC(=O)[C@](C)(Cc1ccccc1)NC(=O)[C@H](CCCCN)NC(=O)[C@H](CO)NC(=O)[C@@H](NC(=O)[C@H](CC(=O)O)NC(=O)[C@H](CO)NC(=O)[C@@H](NC(=O)[C@H](Cc1ccccc1)NC(=O)[C@@H](NC(=O)CNC(=O)[C@H](CCC(N)=O)NC(=O)C(C)(C)NC(=O)[C@@H](N)Cc1c[nH]cn1)[C@@H](C)O)[C@@H](C)O)C(C)C)[C@@H](C)O)C(C)C)C(=O)N[C@@H](CC(C)C)C(=O)N[C@@H](CCC(=O)O)C(=O)NC(C)(C)C(=O)NCC(N)=O
cAMP production EC50 (human glucagon receptor): 1370 pM
cAMP production EC50 (human GLP-1 receptor): 76.7 pM

B3: Peptide 515 (peptide)
peptide: H[Aib]QGTFTSDVSK[αMeF]LDTK([AEEA-AEEA-γGlu-C20 diacid])AARDFVQWLLE[Aib]G-NH2
modifications: N-terminus assumed
SMILES: CC(C)C[C@H](NC(=O)[C@H](Cc1c[nH]c2ccccc12)NC(=O)[C@H](CCC(N)=O)NC(=O)[C@@H](NC(=O)[C@H](Cc1ccccc1)NC(=O)[C@H](CC(=O)O)NC(=O)[C@H](CCCNC(=N)N)NC(=O)[C@H](C)NC(=O)[C@H](C)NC(=O)[C@H](CCCCNC(=O)COCCOCCNC(=O)COCCOCCNC(=O)CC[C@H](NC(=O)CCCCCCCCCCCCCCCCCCC(=O)O)C(=O)O)NC(=O)[C@@H](NC(=O)[C@H](CC(=O)O)NC(=O)[C@H](CC(C)C)NC(=O)[C@](C)(Cc1ccccc1)NC(=O)[C@H](CCCCN)NC(=O)[C@H](CO)NC(=O)[C@@H](NC(=O)[C@H](CC(=O)O)NC(=O)[C@H](CO)NC(=O)[C@@H](NC(=O)[C@H](Cc1ccccc1)NC(=O)[C@@H](NC(=O)CNC(=O)[C@H](CCC(N)=O)NC(=O)C(C)(C)NC(=O)[C@@H](N)Cc1c[nH]cn1)[C@@H](C)O)[C@@H](C)O)C(C)C)[C@@H](C)O)C(C)C)C(=O)N[C@@H](CC(C)C)C(=O)N[C@@H](CCC(=O)O)C(=O)NC(C)(C)C(=O)NCC(N)=O
cAMP production EC50 (human glucagon receptor): 2660 pM
cAMP production EC50 (human GLP-1 receptor): 297 pM

B4: Peptide 513 (peptide)
peptide: H[Aib]QGT[αMeF]TSDVSK[αMeF]LDTK([AEEA-AEEA-γGlu-C18 diacid])RARD[αMeF]VQWLLA[Aib]G-NH2
modifications: N-terminus assumed
SMILES: CC(C)C[C@H](NC(=O)[C@H](CC(C)C)NC(=O)[C@H](Cc1c[nH]c2ccccc12)NC(=O)[C@H](CCC(N)=O)NC(=O)[C@@H](NC(=O)[C@](C)(Cc1ccccc1)NC(=O)[C@H](CC(=O)O)NC(=O)[C@H](CCCNC(=N)N)NC(=O)[C@H](C)NC(=O)[C@H](CCCNC(=N)N)NC(=O)[C@H](CCCCNC(=O)COCCOCCNC(=O)COCCOCCNC(=O)CC[C@H](NC(=O)CCCCCCCCCCCCCCCCC(=O)O)C(=O)O)NC(=O)[C@@H](NC(=O)[C@H](CC(=O)O)NC(=O)[C@H](CC(C)C)NC(=O)[C@](C)(Cc1ccccc1)NC(=O)[C@H](CCCCN)NC(=O)[C@H](CO)NC(=O)[C@@H](NC(=O)[C@H](CC(=O)O)NC(=O)[C@H](CO)NC(=O)[C@@H](NC(=O)[C@](C)(Cc1ccccc1)NC(=O)[C@@H](NC(=O)CNC(=O)[C@H](CCC(N)=O)NC(=O)C(C)(C)NC(=O)[C@@H](N)Cc1c[nH]cn1)[C@@H](C)O)[C@@H](C)O)C(C)C)[C@@H](C)O)C(C)C)C(=O)N[C@@H](C)C(=O)NC(C)(C)C(=O)NCC(N)=O
cAMP production EC50 (human glucagon receptor): 1340 pM
cAMP production EC50 (human GLP-1 receptor): 93.8 pM

B5: Peptide 136 (peptide)
peptide: H[Aib]QGTFTSDVSK[αMeF]LDSK([γGlu-γGlu-AEEA-AEEA-γGlu-γGlu-C18 diacid])RARDFVRWLLE[Aib]G-OH
modifications: N-terminus assumed
SMILES: CC(C)C[C@H](NC(=O)[C@H](Cc1c[nH]c2ccccc12)NC(=O)[C@H](CCCNC(=N)N)NC(=O)[C@@H](NC(=O)[C@H](Cc1ccccc1)NC(=O)[C@H](CC(=O)O)NC(=O)[C@H](CCCNC(=N)N)NC(=O)[C@H](C)NC(=O)[C@H](CCCNC(=N)N)NC(=O)[C@H](CCCCNC(=O)CC[C@H](NC(=O)CC[C@H](NC(=O)COCCOCCNC(=O)COCCOCCNC(=O)CC[C@H](NC(=O)CC[C@H](NC(=O)CCCCCCCCCCCCCCCCC(=O)O)C(=O)O)C(=O)O)C(=O)O)C(=O)O)NC(=O)[C@H](CO)NC(=O)[C@H](CC(=O)O)NC(=O)[C@H](CC(C)C)NC(=O)[C@](C)(Cc1ccccc1)NC(=O)[C@H](CCCCN)NC(=O)[C@H](CO)NC(=O)[C@@H](NC(=O)[C@H](CC(=O)O)NC(=O)[C@H](CO)NC(=O)[C@@H](NC(=O)[C@H](Cc1ccccc1)NC(=O)[C@@H](NC(=O)CNC(=O)[C@H](CCC(N)=O)NC(=O)C(C)(C)NC(=O)[C@@H](N)Cc1c[nH]cn1)[C@@H](C)O)[C@@H](C)O)C(C)C)C(C)C)C(=O)N[C@@H](CC(C)C)C(=O)N[C@@H](CCC(=O)O)C(=O)NC(C)(C)C(=O)NCC(=O)O
cAMP production EC50 (human glucagon receptor): 509 pM
cAMP production EC50 (human GLP-1 receptor): 45.2 pM
